From the supplement of paper PMC5998384

Legend:
HeLa Kyoto [1] = assay: solubility in G1/S (NP-40 vs SDS abundance) (log2 ratio); higher = more soluble; conditions: cell cycle stage: G1/S
HeLa Kyoto [2] = assay: melting temperature (median over replicates), in situ; higher = more thermally stable
HeLa Kyoto [3] = assay: solubility change mitosis vs G1/S (difference of NP-40 vs SDS log2 ratios) (log2 ratio difference); higher = more soluble in mitosis
HeLa Kyoto [4] = assay: thermal stability score vs G1/S (z-score of summed log2 fold changes over temperatures); higher = more thermally stable than in G1/S
[5] = cell cycle stage: early G1 (4.5 h after nocodazole release)
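Wherever melting temperature (median over replicates), in situ is given: HeLa Kyoto cells synchronized by double thymidine or nocodazole block, proteins quantified by TMT10plex mass spectrometry, three independent biological replicates.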
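Wherever solubility change mitosis vs G1/S (difference of NP-40 vs SDS log2 ratios) is given: synchronized HeLa Kyoto cells (double thymidine block for G1/S, nocodazole release for mitosis), protein amounts in NP-40 versus SDS lysates quantified by mass spectrometry, three biological replicates.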
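Wherever solubility in G1/S (NP-40 vs SDS abundance) is given: HeLa Kyoto cells arrested at G1/S by double thymidine block, proteins quantified by TMT10plex mass spectrometry in mild NP-40 versus SDS extracts, three biological replicates.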
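Wherever thermal stability score vs G1/S (z-score of summed log2 fold changes over temperatures) is given: synchronized HeLa Kyoto cells, proteins quantified by TMT10plex mass spectrometry, three biological replicates, mitosis taken 0.5 h after nocodazole release, G1/S directly after double thymidine block.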

Sequence	solubility in G1/S (log2) (HeLa Kyoto [1])	melting temperature (HeLa Kyoto [2]; cell cycle stage: G1/S)	melting temperature (HeLa Kyoto [2]; cell cycle stage: mitosis)	solubility change mitosis (log2) (HeLa Kyoto [3])	thermal stability score (HeLa Kyoto [4]; [5])	thermal stability score (HeLa Kyoto [4]; cell cycle stage: mitosis)
MADKTPGGSQKASSKTRSSDVHSSGSSDAHMDASGPSDSDMPSRTRPKSPRKHNYRNESARESLCDSPHQNLSRPLLENKLKAFSIGKMSTAKRTLSKKEQEELKKKEDEKAAAEIYEEFLAAFEGSDGNKVKTFVRGGVVNAAKEEHETDEKRGKIYKPSSRFADQKNPPNQSSNERPPSLLVIETKKPPLKKGEKEKKKSNLELFKEELKQIQEERDERHKTKGRLSRFEPPQSDSDGQRRSMDAPSRRNRSSGVLDDYAPGSHDVGDPSTTNLYLGNINPQMNEEMLCQEFGRFGPLASVKIMWPRTDEERARERNCGFVAFMNRRDAERALKNLNGKMIMSFEMKLGWGKAVPIPPHPIYIPPSMMEHTLPPPPSGLPFNAQPRERLKNPNAPMLPPPKNKEDFEKTLSQAIVKVVIPTERNLLALIHRMIEFVVREGPMFEAMIMNREINNPMFRFLFENQTPAHVYYRWKLYSILQGDSPTKWRTEDFRMFKNGSFWRPPPLNPYLHGMSEEQETEAFVEEPSKKGALKEEQRDKLEEILRGLTPRKNDIGDAMVFCLNNAEAAEEIVDCITESLSILKTPLPKKIARLYLVSDVLYNSSAKVANASYYRKFFETKLCQIFSDLNATYRTIQGHLQSENFKQRVMTCFRAWEDWAIYPEPFLIKLQNIFLGLVNIIEEKETEDVPDDLDGAPIEEELDGAPLEDVDGIPIDATPIDDLDGVPIKSLDDDLDGVPLDATEDSKKNEPIFKVAPSKWEAVDESELEAQAVTTSKWELFDQHEESEEEENQNQEEESEDEEDTQSSKSEEHHLYSNPIKEEMTESKFSKYSEMSEEKRAKLREIELKVMKFQDELESGKRPKKPGQSFQEQVEHYRDKLLQREKEKELERERERDKKDKEKLESRSKDKKEKDECTPTRKERKRRHSTSPSPSRSSSGRRVKSPSPKSERSERSERSHKESSRSRSSHKDSPRDVSKKAKRSPSGSRTPKRSRRSRSRSPKKSGKKSRSQSRSPHRSHKKSKKNKH [U2SURP]	-0.673	47.9 °C	49.5 °C	0.526	1.49	6.77
MTLDVGPEDELPDWAAAKEFYQKYDPKDVIGRGVSSVVRRCVHRATGHEFAVKIMEVTAERLSPEQLEEVREATRRETHILRQVAGHPHIITLIDSYESSSFMFLVFDLMRKGELFDYLTEKVALSEKETRSIMRSLLEAVSFLHANNIVHRDLKPENILLDDNMQIRLSDFGFSCHLEPGEKLRELCGTPGYLAPEILKCSMDETHPGYGKEVDLWACGVILFTLLAGSPPFWHRRQILMLRMIMEGQYQFSSPEWDDRSSTVKDLISRLLQVDPEARLTAEQALQHPFFERCEGSQPWNLTPRQRFRVAVWTVLAAGRVALSTHRVRPLTKNALLRDPYALRSVRHLIDNCAFRLYGHWVKKGEQQNRAALFQHRPPGPFPIMGPEEEGDSAAITEDEAVLVLG [PHKG2]	-0.0283	50.4 °C	50.7 °C	-0.298	-0.266	0.0815
MEAERGPERRPAERSSPGQTPEEGAQALAEFAALHGPALRASGVPERYWGRLLHKLEHEVFDAGEVFGIMQVEEVEEEEDEAAREVRKQQPNPGNELCYKVIVTRESGLQAAHPNSIFLIDHAWTCRVEHARQQLQQVPGLLHRMANLMGIEFHGELPSTEAVALVLEEMWKFNQTYQLAHGTAEEKMPVWYIMDEFGSRIQHADVPSFATAPFFYMPQQVAYTLLWPLRDLDTGEEVTRDFAYGETDPLIRKCMLLPWAPTDMLDLSSCTPEPPAEHYQAILEENKEKLPLDINPVVHPHGHIFKVYTDVQQVASSLTHPRFTLTQSEADADILFNFSHFKDYRKLSQERPGVLLNQFPCENLLTVKDCLASIARRAGGPEGPPWLPRTFNLRTELPQFVSYFQQRERWGEDNHWICKPWNLARSLDTHVTKSLHSIIRHRESTPKVVSKYIESPVLFLREDVGKVKFDIRYIVLLRSVRPLRLFVYDVFWLRFSNRAFALNDLDDYEKHFTVMNYDPDVVLKQVHCEEFIPEFEKQYPEFPWTDVQAEIFRAFTELFQVACAKPPPLGLCDYPSSRAMYAVDLMLKWDNGPDGRRVMQPQILEVNFNPDCERACRYHPTFFNDVFSTLFLDQPGGCHVTCLV [TTLL12]	0.0605	47.6 °C	48.4 °C	-0.125	2	3.92
MARRGWRRAPLRRGVGSSPRARRLMRPLWLLLAVGVFDWAGASDGGGGEARAMDEEIVSEKQAEESHRQDSANLLIFILLLTLTILTIWLFKHRRARFLHETGLAMIYGLLVGLVLRYGIHVPSDVNNVTLSCEVQSSPTTLLVNVSGKFYEYMLKGEISSHELNNVQDNEMLRKVTFDPEVFFNILLPPIIFYAGYSLKRRHFFRNLGSILAYAFLGTAISCFVIGSIMYGCVTLMKVTGQLAGDFYFTDCLLFGAIVSATDPVTVLAIFHELQVDVELYALLFGESVLNDAVAIVLSSSIVAYQPAGDNSHTFDVTAMFKSIGIFLGIFSGSFAMGAATGVVTALVTKFTKLREFQLLETGLFFLMSWSTFLLAEAWGFTGVVAVLFCGITQAHYTYNNLSTESQHRTKQLFELLNFLAENFIFSYMGLTLFTFQNHVFNPTFVVGAFVAIFLGRAANIYPLSLLLNLGRRSKIGSNFQHMMMFAGLRGAMAFALAIRDTATYARQMMFSTTLLIVFFTVWVFGGGTTAMLSCLHIRVGVDSDQEHLGVPENERRTTKAESAWLFRMWYNFDHNYLKPLLTHSGPPLTTTLPACCGPIARCLTSPQAYENQEQLKDDDSDLILNDGDISLTYGDSTVNTEPATSSAPRRFMGNSSEDALDRELAFGDHELVIRGTRLVLPMDDSEPPLNLLDNTRHGPA [SLC9A6]	0.0823	56.1 °C	57.1 °C	-0.268	-2.9	-3.5
